From patent publication US20250277031A1 (BEIJING HANMI PHARMACEUTICAL, published 2025)

Columns and labels:
Test in all cases: ELISA, plate coated with 1 µg/mL recombinant human protein, anti-human IgG-HRP, OD450; antibody concentration not given
[1] = molecular target: recombinant human SIRPγ (ACROBiosystems) (human, UniProt Q9P1W8 29-360, limits assumed)
Method: (§1) Binding specificity of the chimeric anti-human CD47 mAbs was determined by ELISA. A 96-well high-adsorption ELISA plate was coated with 1 μg/mL of the recombinant human PD1, CD28, CTLA4, ICOS, BTLA, CD47, PD-L2, CD80, CD86, B7-H2, CD47, SIRPα and SIRPγ (all from ACROBiosystems), at 100 μL per well using carbonate buffer solution, pH=9.6 at 4° C. overnight. The plate was washed 5 times with PBST, and then blocked using PBST with 1% BSA, 300 μL/well, and incubated at 25° C. for 1 hour, and then washed 5 times with PBST. The chimeric anti-human CD47 mAb samples serially diluted in PBST with 1% BSA and the control CC-90002 and the isotype control were added, 100 μL/well, incubated at 25° C. for 1 hour, and then washed 5 times with PBST. The horseradish peroxidase-labeled anti-human IgG antibody (Chemicon, catalog number AP309P) diluted 1:10000 in PBST with 1% BSA was then added, 100 μL per well, and incubated at 25° C. for 1 hour. The plate was washed 5 times with PBST. The colorimetric substrate TMB was added, 100 μL/well, and developed at room temperature for 10 minutes. 1M H₂SO₄ was added, 100 μL/well, to stop the development. The absorbance at 450 nm was read on a microplate reader.

[2] = molecular target: T1, recombinant human CD80 (ACROBiosystems) (human, UniProt P33681 35-242)
T1 construct: counted here as a B7 family member
T1 sequence (looked up): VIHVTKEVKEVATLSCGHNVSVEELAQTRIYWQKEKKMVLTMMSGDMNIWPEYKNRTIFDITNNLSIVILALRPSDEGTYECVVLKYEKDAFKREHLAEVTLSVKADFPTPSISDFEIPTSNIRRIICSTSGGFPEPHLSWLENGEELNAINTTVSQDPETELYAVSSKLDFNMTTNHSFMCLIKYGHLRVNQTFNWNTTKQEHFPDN
Method: as §1

[3] = molecular target: T2, recombinant human CD86 (ACROBiosystems) (human, UniProt P42081 26-247, limits assumed)
T2 construct: counted here as a B7 family member
T2 sequence (looked up): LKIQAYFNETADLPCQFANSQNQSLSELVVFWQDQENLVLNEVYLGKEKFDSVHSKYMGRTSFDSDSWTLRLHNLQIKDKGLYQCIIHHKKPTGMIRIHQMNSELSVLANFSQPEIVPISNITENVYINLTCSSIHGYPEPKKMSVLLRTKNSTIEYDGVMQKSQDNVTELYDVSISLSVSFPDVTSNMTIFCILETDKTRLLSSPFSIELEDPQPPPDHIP
Method: as §1

[4] = molecular target: T3, recombinant human SIRPα (ACROBiosystems) (human, UniProt P78324 31-370)
T3 construct: unlabelled protein coated in the specificity ELISA
Method: as §1

[5] = molecular target: T4, recombinant human CTLA4 (ACROBiosystems) (human, UniProt P16410 37-162, limits assumed)
T4 construct: counted here as a CD28 family member
Method: as §1

[6] = molecular target: T5, recombinant human PD-L2 (ACROBiosystems) (human, UniProt Q9BQ51 20-219, limits assumed)
T5 construct: counted here as a B7 family member
T5 sequence (looked up): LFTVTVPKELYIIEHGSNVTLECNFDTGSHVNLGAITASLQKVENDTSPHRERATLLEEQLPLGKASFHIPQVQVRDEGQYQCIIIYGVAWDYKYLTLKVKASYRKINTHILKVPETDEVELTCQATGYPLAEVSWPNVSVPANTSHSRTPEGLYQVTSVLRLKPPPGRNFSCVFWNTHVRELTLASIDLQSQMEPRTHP
Method: as §1

[7] = molecular target: T6, recombinant human B7-H2 (ACROBiosystems) (human, UniProt O75144 19-258, limits assumed)
T6 construct: counted here as a B7 family member
T6 sequence (looked up): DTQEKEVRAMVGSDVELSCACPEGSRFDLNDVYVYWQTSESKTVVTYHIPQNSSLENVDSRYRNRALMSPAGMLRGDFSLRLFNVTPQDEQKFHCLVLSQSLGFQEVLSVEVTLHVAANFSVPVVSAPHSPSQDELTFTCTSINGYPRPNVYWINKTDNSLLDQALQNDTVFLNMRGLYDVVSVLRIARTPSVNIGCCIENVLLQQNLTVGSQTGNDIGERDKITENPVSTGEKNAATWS
Method: as §1

[8] = molecular target: T7, recombinant human PD1 (ACROBiosystems) (human, UniProt Q15116 25-167)
T7 construct: counted here as a CD28 family member
Method: as §1

[9] = molecular target: T8, recombinant human BTLA (ACROBiosystems) (human, UniProt Q7Z6A9 31-151, limits assumed)
T8 construct: counted here as a CD28 family member
Method: as §1

[10] = molecular target: T9, recombinant human CD28 (ACROBiosystems) (human, UniProt P10747 19-152)
T9 construct: counted here as a CD28 family member
Method: as §1

[11] = molecular target: T10, recombinant human ICOS (ACROBiosystems) (human, UniProt Q9Y6W8 21-140, limits assumed)
T10 construct: counted here as a CD28 family member
T10 sequence (looked up): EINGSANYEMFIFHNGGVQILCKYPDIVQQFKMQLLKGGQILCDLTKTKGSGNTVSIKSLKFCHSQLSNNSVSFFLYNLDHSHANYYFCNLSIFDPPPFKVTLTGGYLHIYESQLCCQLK
Method: as §1

Measured: binding result

T7 sequence (Q15116 25-167 limits assumed): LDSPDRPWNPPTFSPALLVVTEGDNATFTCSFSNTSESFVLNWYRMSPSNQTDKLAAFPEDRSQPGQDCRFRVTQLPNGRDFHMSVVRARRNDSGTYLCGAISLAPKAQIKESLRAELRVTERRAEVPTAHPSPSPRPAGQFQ
Sequence of recombinant human SIRPγ (ACROBiosystems) (Q9P1W8 29-360 limits assumed): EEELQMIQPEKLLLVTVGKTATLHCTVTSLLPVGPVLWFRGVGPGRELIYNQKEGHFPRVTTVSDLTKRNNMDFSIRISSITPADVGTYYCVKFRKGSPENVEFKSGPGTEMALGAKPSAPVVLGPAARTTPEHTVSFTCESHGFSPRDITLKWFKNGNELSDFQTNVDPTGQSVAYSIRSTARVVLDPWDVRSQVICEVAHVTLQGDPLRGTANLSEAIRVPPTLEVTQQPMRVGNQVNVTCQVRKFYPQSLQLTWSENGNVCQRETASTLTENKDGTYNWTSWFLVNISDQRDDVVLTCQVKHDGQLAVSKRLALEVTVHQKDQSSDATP
T3 sequence (P78324 31-370 limits assumed): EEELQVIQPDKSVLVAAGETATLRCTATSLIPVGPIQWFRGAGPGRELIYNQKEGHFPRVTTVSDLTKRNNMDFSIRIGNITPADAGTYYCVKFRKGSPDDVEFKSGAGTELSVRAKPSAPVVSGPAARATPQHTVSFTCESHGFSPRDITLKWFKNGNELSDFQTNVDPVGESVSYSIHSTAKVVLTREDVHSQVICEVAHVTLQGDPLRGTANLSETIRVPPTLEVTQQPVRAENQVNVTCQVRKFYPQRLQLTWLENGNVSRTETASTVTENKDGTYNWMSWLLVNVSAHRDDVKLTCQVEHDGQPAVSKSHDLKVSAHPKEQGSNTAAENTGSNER
T4 sequence (P16410 37-162 limits assumed): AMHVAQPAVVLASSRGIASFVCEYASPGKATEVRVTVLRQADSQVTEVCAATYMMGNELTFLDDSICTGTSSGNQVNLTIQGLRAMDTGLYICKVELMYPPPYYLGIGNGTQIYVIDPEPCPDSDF
T8 sequence (Q7Z6A9 31-151 limits assumed): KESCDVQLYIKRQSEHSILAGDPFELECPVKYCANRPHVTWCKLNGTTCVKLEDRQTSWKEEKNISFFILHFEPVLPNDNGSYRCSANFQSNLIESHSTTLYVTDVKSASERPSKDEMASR

B1: chimeric anti-human CD47 monoclonal antibody mAb-18-5 (antibody, human IgG1, kappa)
heavy: not shown
light: DIVMTQSQKFMSTSVGDRVSITCKASQNVRTSIAWYQQKSGQSPKTLIYLASNRHTGVPDRFTGSGSGTDFTLTISNVQSEDLADYFCLQHWNYPFTFGSGTKLEIKRTVAAPSVFIFPPSDEQLKSGTASVVCLLNNFYPREAKVQWKVDNALQSGNSQESVTEQDSKDSTYSLSSTLTLSKADYEKHKVYACEVTHQGLSSPVTKSFNRGEC
no binding: all assays above
